How the values were obtained:
[1] = test system: fluorescently quenched α-gliadin hexapeptide analogue QXL520-PQPQLP-K(5-FAM)-NH2
[2] = test system: T1, immunodominant α9-gliadin peptide QLQPFPQPQLPY
T1 sequence: QLQPFPQPQLPY

Chain of glutamine-specific endoprotease EP-B2 (native) (chain, as listed by the source): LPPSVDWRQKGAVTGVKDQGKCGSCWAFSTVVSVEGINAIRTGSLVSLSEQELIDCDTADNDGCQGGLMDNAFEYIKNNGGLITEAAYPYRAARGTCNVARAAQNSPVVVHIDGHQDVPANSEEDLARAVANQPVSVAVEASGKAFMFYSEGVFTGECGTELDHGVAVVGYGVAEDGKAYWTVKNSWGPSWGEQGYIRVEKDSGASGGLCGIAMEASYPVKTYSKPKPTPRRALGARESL

glutamine-specific endoprotease EP-B2 (native)
activity (Suc-APR-pNA): no activity
activity (Suc-APQ-pNA): no activity
activity (Suc-AQP-pNA): no activity
activity at pH 4 [1]: only very low levels of activity were detected
activity (Suc-APE-pNA): no activity

prolyl endopeptidase SC PEP (native)
catalytic activity at pH 4 (Suc-APR-pNA): did not exhibit any significant activity
catalytic activity at pH 4 (Suc-APQ-pNA): did not exhibit any significant activity
catalytic activity at pH 4 (Suc-AQP-pNA): did not exhibit any significant activity
catalytic efficiency at pH 7 (Suc-AQP-pNA): 2390 M^-1s^-1
degradation of the peptide after 50 minutes (LC-MS, pH 4, 37° C.) [2]: no significant degradation of the peptide was observed
catalytic efficiency at pH 4 [1]: 1.6 M^-1s^-1
fold lower level of activity than KumaMax [1]: roughly 350-fold lower level of activity on this substrate than KumaMax
catalytic activity at pH 4 (Suc-APE-pNA): did not exhibit any significant activity
